Measured values: US11597760 (dated 2023)

What was measured:
human C5 [1] = biological target: human C5 (human); test: SPR, pH 7.4, 37C
human C5 [2] = biological target: human C5 (human); test: SPR, pH 5.8, 37C
human C5 [3] = biological target: human C5 (human); test: SPR, pH 5.8, 37C; remark: listed apart in the source
human C5 [4] = biological target: human C5 (human); test: SPR, pH 7.4, 37C; remark: listed apart in the source

Row | Binder | Kd (human C5 [1]) [nM] | Kd (human C5 [2]) [nM] | Kd (human C5 [3]) [nM] | Kd (human C5 [4]) [nM]
1 | CFA0341 (antibody, V domains shown) VH: QSVEESGGRLVTPGTPLTLTCTVSGIDLSSYTMGWVRQAPGKGLECIGYIHSFGSTYYASWAKGRFTISKTSTTVDLEITSPTTEDTATYFCARDVGGSSGWDLWGQGTLVTVSS VL: DVVMTQTPSSVSAAVGGTVTIKCQASENIYSNLAWYQQKPGQPPKRLIYDASDLASGVPSRFSGSGYGTQFTLTISGVQCEDAATYYCQANYDSTSSSFGNVFGGGTEVVVK | 0.155 | 0.0595 |  | 
2 | CFA0307 (antibody, V domains shown) VH: QSLEESGGGLVKPGASLTLTCKASGIDFSNFYYICWVRQAPGKGLDLIACIYTVSGYTYYASWAKGRLTISKTSSTTVTLQMTSLTAADTATYFCARDLHAGITNLWGPGTLVTVSS VL: AIEMTQTPFSVSAAVGGTVTIKCQASQNIYSNLAWYQQKPGQRPKLLIYGASNLESGVPSRFKGSGSGTEYTLTISDLECADAATYYCLQGYSYSNVDDAFGGGTEVVVK | 8.13 | 164 |  | 
3 | CFA0330 (antibody, V domains shown) VH: QSLEESGGDLVEPGASLTLTCTASGFSWNSGYDMCWVRQAPGKGLEWIACIYTGSSANTAYANWAKGRFTISKTSSTTVTLQMTGLTAADTATYFCARHDDYFFDLWGPGTLVTVSS VL: DVVMTQTPASVSESVGGTVTINCQASQSIGNNLAWYQQKPGQPPKLLIYDASNLASGVPSRFKGSRSGTEPTLTNTLTISGVQCADVATYYCQSGWYGNSYVAAFGGGTEVVVK | 0.122 | 0.184 |  | 
4 | 305LO16-SG422 (antibody, V domains shown) VH: QVQLVESGGGLVQPGRSLRLSCAASGFTVHSSYYMAWVRQAPGKGLEWVGAIFTGSGAEYKAEWVKGRFTISRDNSKNTLYLQMNSLRAEDTAVYYCASDAGYDYPTHAMHYWGRGTLVTVSS VL: DIQMTQSPSSLSASVGDRVTITCRASQGISSSLAWYQQKPGKAPKLLIYGASETESGVPSRFSGSGSGTDFTLTISSLQPEDFATYYCQNTKVGSSYGNTFGGGTKVEIK |  |  | 79.5 | 0.321
5 | 305LO5 (antibody, V domains shown) VH: QVQLVESGGGLVQPGGSLRLSCAASGFTSHSSYYVAWVRQAPGKGLEWVGAIYTGSGATYKASWAKGRFTISKDTSKNQVVLTMTNMDPVDTATYYCASDGGYDYPTHAMHYWGQGTLVTVSS VL: DVVMTQSPSSLSASVGDRVTITCQASQNIGSSLAWYQQKPGQAPRLLIYGASKTHSGVPSRFSGSGSGTDFTLTISSLQPEDVATYYCQSTKVGSSYGNHFGGGTKVEIK | 0.471 | 14 |  | 
6 | 305LO23-SG115 (antibody, V domains shown) VH: QVQLVESGGGLVQPGGSLRLSCAASGFTVHSSYYMAWVRQAPGKGLEWVSGIFTGSGATYKAEWAKGRVTISKDTSKNQVVLTMTNMDPVDTATYYCASDAGYDYPTHAMHYWGQGTLVTVSS VL: DIQMTQSPSSLSASVGDRVTITCRASQGISSSLAWYQQKPGQAPRLLIYGASTTQSGVPSRFSGSGSGTDFTLTISSLQPEDFATYYCQNTKVGSSYGNTFGGGTKVEIK |  |  | 64.1 | 0.277
7 | 305LO20-SG422 (antibody, V domains shown) VH: QVQLVESGGGLVQPGGSLRLSCAASGFTVHSSYYMAWVRQAPGKGLEWVGAIFTGSGAEYKAEWAKGRVTISKDTSKNQVVLTMTNMDPVDTATYYCASDAGYDYPTHAMHYWGQGTLVTVSS VL: DIQMTQSPSSLSASVGDRVTITCRASQGISSSLAWYQQKPGQAPRLLIYGASETESGVPSRFSGSGSGTDFTLTISSLQPEDFATYYCQNTKVGSSYGNTFGGGTKVEIK |  |  | 59.9 | 0.349
8 | 305LO20-SG115 (antibody, V domains shown) VH: QVQLVESGGGLVQPGGSLRLSCAASGFTVHSSYYMAWVRQAPGKGLEWVGAIFTGSGAEYKAEWAKGRVTISKDTSKNQVVLTMTNMDPVDTATYYCASDAGYDYPTHAMHYWGQGTLVTVSS VL: DIQMTQSPSSLSASVGDRVTITCRASQGISSSLAWYQQKPGQAPRLLIYGASETESGVPSRFSGSGSGTDFTLTISSLQPEDFATYYCQNTKVGSSYGNTFGGGTKVEIK |  |  | 58.1 | 0.324
9 | CFA0366 (antibody, V domains shown) VH: QSLEESGGDLVKPGASLSLTCTAAGLDFSSSYYMCWVRQAPGKGLEWIACIYAGSSGIIYYANWAKGRFTISRPSSTTVTLQMTSLTAADTATYFCATYPTYGDGGHAFNLWGPGTLVTVSS VL: AQVLTQTPSSVSAAVGGTVTINCQSSQSVYSSDYLSWYQQKPGQPPKLLIYEASKLASGVPPRFSGSGSGTQFTLTISGVQCDDAATYYCQGTYYSSGWYFAFGGGTEVVVK | 8.99 | 75.2 |  | 

More lines, now with the values ahead:

Row | Kd (human C5 [1]) [nM] | Kd (human C5 [2]) [nM] | Kd (human C5 [3]) [nM] | Kd (human C5 [4]) [nM] | Binder
10 | 0.351 | 138 |  |  | CFA0672 (antibody, V domains shown) VH: QSVEESGGRLVTPGTPLTLTCTASGFSLSGNAINWVRQAPGKGLEWIGCIYTGSDTTYYATWAKGRFTISKTSTTVDLKIASPTTEDTATYFCARGSGLWGPGTLVTVSS VL: DVVMTQTPASVSAPVGGTVTIKCQASQNIYSLLAWYQQKPGQPPKLLIYHTSDLASGVPSRFRGSGSGTEFTLTISDLECADAATYYCQCTAYGSSDVGGTFGGGTTVVVE
11 | 1.71 | 33.3 |  |  | CFA0666 (antibody, V domains shown) VH: QSVEESGGRLVTPGTPLTLTCTVSGFSLSTYAMGWVRQAPGKGLEWIGTIDTGDNSFYANWAKGRFTISKTSTTVDLKITSPTAEDTATYFCARNDGSVYNLFNLWGPGTLVTVSS VL: DVVMTQTPASVSAAVGGTVTIKCQASENIYSALSWYQQKPGLRPRLLIYYASTLASGVPSRFKGSRSGTEFTLTISDLECADAATYYCQQYYDINSVDNTFGGGTKVVVE
12 | 1.08 | 17 |  |  | CFA0675 (antibody, V domains shown) VH: QSVEESGGRLVTPGTPLTLTCTVSGFSLSTYAMGWVRQAPGKGLEWIGTIDTGDNSFYANWAKGRFTISRTSTTVDLKITSPTAEDTATYFCARNDGSVYNLFNLWGPGTLVTVSS VL: DVVMTQTPASVSAAVGGTVTIKCQASENIYSALSWYQQKPGLRPRLLIYYASTLASGVPSRFKGSRSGTEFTLTISDLECADAASYYCQQYYDINSVDNTFGGGTKVVVE
13 | 3.91 | 246 |  |  | CFA0538 (antibody, V domains shown) VH: QSVEESGGRLVTPGTPLTLTCTASGFSLSSYYMNWVRQAPGKGLEWIGMIYGSGATYYASWAKGRFTISKTSSTTVDLKMTSLTTEDTATYFCARQIYSGDNNDNFWGPGTLVTVSS VL: AYDMTQTPASVEVAVGGTVTINCQASESISNWLAWYQQKPGQRPKLLIYRASTLASGVSSRFKGSGSGTQFTLTISGVECDDAATYYCQQDYSSSNVDNTFGGGTTVVVE
14 | 3.56 | 174 |  |  | CFA0501 (antibody, V domains shown) VH: QSVEESGGRLVTPGTPLTLTCTASGFSLSSYYMNWVRQAPGKGLEWIGMIYGSGATYYASWAKGRFTISKTSSTTVDLKMTSLTTEDTATYFCARQIYSGDNNDNFWGPGTLVTVSS VL: AYDMTQTPASVEVAVGGTVTINCQASESISNWLAWYQQKPGQRPKLLIYRASTLASGVSSRFKGSGSGTQFTLTISGVECDDAATYYCQQDYSSSNVDNTFGGGTKVVVE
15 | 5.93 | 82.1 |  |  | CFA0599 (antibody, V domains shown) VH: QSVEESGGRLVTPGTPLTLTCTVSGLSLSDNTMTWVRQAPGKGLEWIGIISFGGDAYYASWAKGRFPISKTSTTVDLRITSPTTEDTATYFCARVGAGNIFWYFDLWGPGTLVTVSS VL: AYDMTQTPASVEVSVGGTVTIKCQASESIYSALAWYQQKPGQPPKLLIYSASTLASGVPSRFKGSGSGTEYTLTISDLECADAATYYCQQYYSSTNVHNSFGGGTTVVVE
